According to the Human Domainome abundance scans (Beltran et al. 2025):
± gives the uncertainty stated by the source.

B1: Transcriptional repressor p66-beta, residues 415 to 455; numbered along this chain, Q8WXI9 (parent)
chain: VEPFVCAQCRTDFTPHWKQEKNGKILCEQCMTSNQKKALKA

Variants of: B1
Experiment: abundance fitness (aPCA) (normalised: wild type 0, dead -1); higher = more abundant; growth selection in yeast, the domain comes from the species named
Conditions: Homo sapiens
In the case of K18M, the abundance fitness is reported as -0.011 ± 0.19. With K18V the abundance fitness was 0.011 ± 0.06. K18G gave an abundance fitness of 0.098 ± 0.071. In the case of K18W, the abundance fitness is reported as -0.195 ± 0.073. Variant K18L has an abundance fitness of -0.217 ± 0.069. Variant K18E has an abundance fitness of 0.098 ± 0.078. For K18S, the abundance fitness was 0.021 ± 0.092. In the case of K18I, the abundance fitness is reported as -0.295 ± 0.38. K18Q gave an abundance fitness of -0.105 ± 0.11. Variant K18C has an abundance fitness of 0.01 ± 0.078. Variant K18P has an abundance fitness of -0.165 ± 0.11. With K18Y the abundance fitness was -0.447 ± 0.34. Work on K18T yielded an abundance fitness of -0.164 ± 0.17. K18F gave an abundance fitness of -0.312 ± 0.39. K18D showed an abundance fitness of -0.099 ± 0.24. Work on K18H yielded an abundance fitness of 0.155 ± 0.38. With N22R the abundance fitness was 0.208 ± 0.065. N22Y gave an abundance fitness of 0.19 ± 0.3. For N22P, the abundance fitness was 0.027 ± 0.16. Variant N22W has an abundance fitness of 0.137 ± 0.1. Work on N22F yielded an abundance fitness of -0.377 ± 0.18. Variant N22A has an abundance fitness of 0.05 ± 0.069. With N22S the abundance fitness was 0.382 ± 0.08. Work on N22L yielded an abundance fitness of -0.241 ± 0.12. Variant N22D has an abundance fitness of 0.011 ± 0.14. In the case of N22K, the abundance fitness is reported as 0.066 ± 0.13. Variant N22C has an abundance fitness of 0.289 ± 0.12. Variant N22Q has an abundance fitness of 0.106 ± 0.12. For N22G, the abundance fitness was 0.439 ± 0.06. Work on N22V yielded an abundance fitness of 0.193 ± 0.079. Work on N22T yielded an abundance fitness of 0.079 ± 0.2. Work on T14K yielded an abundance fitness of -0.014 ± 0.072. With T14Q the abundance fitness was -0.078 ± 0.12. With T14Y the abundance fitness was 0.264 ± 0.2. In the case of T14S, the abundance fitness is reported as -0.042 ± 0.12. T14H gave an abundance fitness of -0.039 ± 0.14. T14F showed an abundance fitness of -0.056 ± 0.21. With T14V the abundance fitness was 0.144 ± 0.067. With T14M the abundance fitness was -0.527 ± 0.25. In the case of T14W, the abundance fitness is reported as -0.521 ± 0.094. In the case of T14P, the abundance fitness is reported as 0.137 ± 0.078. T14L showed an abundance fitness of -0.035 ± 0.078. With T14E the abundance fitness was -0.041 ± 0.11. For T14C, the abundance fitness was -0.145 ± 0.16. Variant T14G has an abundance fitness of -0.395 ± 0.086. With T14A the abundance fitness was -0.185 ± 0.086. T14D gave an abundance fitness of -0.347 ± 0.27. T14I gave an abundance fitness of -0.298 ± 0.13. In the case of T14R, the abundance fitness is reported as -0.237 ± 0.068. F13S gave an abundance fitness of -0.164 ± 0.079. F13L gave an abundance fitness of -0.179 ± 0.072. F13G showed an abundance fitness of -0.116 ± 0.059. For F13T, the abundance fitness was 0.039 ± 0.094. Work on F13A yielded an abundance fitness of 0.139 ± 0.067. Work on F13H yielded an abundance fitness of -0.244 ± 0.3. Variant F13K has an abundance fitness of -0.629 ± 0.44. For F13E, the abundance fitness was -0.007 ± 0.074. In the case of F13M, the abundance fitness is reported as 0.192 ± 0.12. For F13D, the abundance fitness was -0.21 ± 0.22. Work on F13R yielded an abundance fitness of -0.144 ± 0.065. F13W showed an abundance fitness of -0.213 ± 0.089. Variant F13Q has an abundance fitness of -0.593 ± 0.28. With F13V the abundance fitness was 0.337 ± 0.053. With E20I the abundance fitness was 0.391 ± 0.34. With E20P the abundance fitness was -0.631 ± 0.23. E20S gave an abundance fitness of -0.115 ± 0.11. E20G gave an abundance fitness of -0.034 ± 0.063. Variant E20F has an abundance fitness of -0.696 ± 0.29. In the case of E20C, the abundance fitness is reported as 0.158 ± 0.13. Variant E20T has an abundance fitness of -0.315 ± 0.2. E20L gave an abundance fitness of -0.254 ± 0.1. E20W showed an abundance fitness of -0.362 ± 0.16. For E20A, the abundance fitness was -0.498 ± 0.099. In the case of E20R, the abundance fitness is reported as -0.314 ± 0.072. Variant E20K has an abundance fitness of -0.468 ± 0.37. E20D showed an abundance fitness of -0.645 ± 0.41. Variant E20V has an abundance fitness of -0.013 ± 0.092. E20Q gave an abundance fitness of -0.303 ± 0.13. V5R gave an abundance fitness of -0.027 ± 0.067. For V5G, the abundance fitness was -0.302 ± 0.075. For V5C, the abundance fitness was -0.351 ± 0.23. Variant V5Q has an abundance fitness of 0.14 ± 0.084. In the case of V5S, the abundance fitness is reported as 0.136 ± 0.094. Variant V5M has an abundance fitness of -0.03 ± 0.17. V5D gave an abundance fitness of -0.568 ± 0.27. V5F showed an abundance fitness of -0.288 ± 0.2. For V5K, the abundance fitness was 0.027 ± 0.11. Work on V5E yielded an abundance fitness of -0.226 ± 0.089. In the case of V5I, the abundance fitness is reported as -0.126 ± 0.13. For V5P, the abundance fitness was -0.29 ± 0.12. Work on V5A yielded an abundance fitness of 0.116 ± 0.095. V5W gave an abundance fitness of -0.405 ± 0.13. V5T showed an abundance fitness of 0.041 ± 0.1. For V5L, the abundance fitness was 0.18 ± 0.068. Variant R10V has an abundance fitness of 0.703 ± 0.058. R10E gave an abundance fitness of 0.27 ± 0.13. In the case of R10C, the abundance fitness is reported as 0.957 ± 0.068. For R10F, the abundance fitness was 0.608 ± 0.1. For R10K, the abundance fitness was 0.409 ± 0.087. With R10D the abundance fitness was 0.014 ± 0.092. With R10N the abundance fitness was -0.022 ± 0.22. In the case of R10L, the abundance fitness is reported as 0.585 ± 0.064. R10H gave an abundance fitness of 1.1 ± 0.083. R10A gave an abundance fitness of 0.904 ± 0.067. For R10P, the abundance fitness was 0.352 ± 0.093. R10S gave an abundance fitness of 0.717 ± 0.059. In the case of R10W, the abundance fitness is reported as 0.338 ± 0.068. With R10I the abundance fitness was 0.521 ± 0.14. With R10Y the abundance fitness was 0.518 ± 0.082. Work on E2P yielded an abundance fitness of -0.29 ± 0.16. E2H gave an abundance fitness of 0.197 ± 0.14. With E2C the abundance fitness was -0.112 ± 0.16. With E2M the abundance fitness was -0.019 ± 0.1. Work on E2R yielded an abundance fitness of -0.55 ± 0.15. E2Q gave an abundance fitness of -0.297 ± 0.17. For E2D, the abundance fitness was 1.14 ± 0.48. Variant E2V has an abundance fitness of -0.227 ± 0.072. E2L showed an abundance fitness of -0.469 ± 0.16. With E2N the abundance fitness was 0.866 ± 0.19. In the case of E2Y, the abundance fitness is reported as -0.114 ± 0.11. For E2A, the abundance fitness was -0.352 ± 0.088. With E2F the abundance fitness was -0.1 ± 0.28. E2T showed an abundance fitness of 0.056 ± 0.1. E2W gave an abundance fitness of -0.651 ± 0.16. Work on E2G yielded an abundance fitness of -0.299 ± 0.092. With E2I the abundance fitness was -0.342 ± 0.37. Work on E2K yielded an abundance fitness of -0.324 ± 0.11. Work on E2S yielded an abundance fitness of -0.074 ± 0.086. G23A gave an abundance fitness of 0.148 ± 0.062. Variant K21Q has an abundance fitness of 0.235 ± 0.1. K21W showed an abundance fitness of 0.037 ± 0.077. K21V gave an abundance fitness of -0.026 ± 0.093. For K21S, the abundance fitness was -0.104 ± 0.084. In the case of K21G, the abundance fitness is reported as 0.145 ± 0.053. For K21A, the abundance fitness was 0.008 ± 0.068. K21M gave an abundance fitness of -0.054 ± 0.17. For K21P, the abundance fitness was 0.264 ± 0.12. Work on K21R yielded an abundance fitness of 0.129 ± 0.057. In the case of P15D, the abundance fitness is reported as 0.212 ± 0.14. With P15M the abundance fitness was -0.111 ± 0.1. P15W showed an abundance fitness of -0.401 ± 0.087. P15V showed an abundance fitness of 0.015 ± 0.063. P15F gave an abundance fitness of -0.351 ± 0.18. Variant P15Q has an abundance fitness of -0.137 ± 0.23. Variant P15A has an abundance fitness of -0.011 ± 0.075. With P15E the abundance fitness was -0.102 ± 0.076. P15L showed an abundance fitness of -0.018 ± 0.1. With P15T the abundance fitness was 0.078 ± 0.085. P15I showed an abundance fitness of -0.154 ± 0.19. With P15G the abundance fitness was -0.048 ± 0.06. P15C showed an abundance fitness of 0.051 ± 0.08. For P15R, the abundance fitness was -0.15 ± 0.062. In the case of C9H, the abundance fitness is reported as 0.389 ± 0.1. With C9E the abundance fitness was -0.235 ± 0.11. C9R gave an abundance fitness of -0.436 ± 0.09. With C9A the abundance fitness was -0.417 ± 0.079. In the case of C9Y, the abundance fitness is reported as -0.937 ± 0.43. C9M gave an abundance fitness of -0.716 ± 0.3. C9N showed an abundance fitness of -0.717 ± 0.41. For C9P, the abundance fitness was -0.049 ± 0.15. In the case of C9Q, the abundance fitness is reported as -0.09 ± 0.097. C9W showed an abundance fitness of -0.999 ± 0.17. In the case of C9T, the abundance fitness is reported as -0.203 ± 0.12. C9S showed an abundance fitness of -0.733 ± 0.27. Work on C9D yielded an abundance fitness of -0.271 ± 0.17. Variant C9K has an abundance fitness of -0.148 ± 0.13. C9G showed an abundance fitness of -0.262 ± 0.062.
